US20240124585A1 (SUTRO BIOPHARMA, published 2024)
Where a chain is given by its changes, count along the chain named.

Columns and labels:
[1] = biological target: T1, human CD3 epsilon (Acro Cat #CDE-H5223) (human, UniProt P07766 23-126); test: SPR (Biacore), scFvFc captured, rhCD3E analyte
T1 construct: Bought recombinant protein; also called rhCD3E
Method: Anti-Fab or anti-Fc polyclonal antibodies were immobilized onto a CM5 chip (GE Life Sciences) using amine coupling chemistry (from Amine Coupling Kit, GE Life Sciences). The immobilization steps were carried out at a flow rate of 25 μl/min in 1×HBS-EP+ buffer (GE Life Sciences; 10× Stock diluted before use). The sensor surfaces were activated for 7 min with a mixture of NHS (0.05 M) and EDC (0.2 M). The Anti-Fab or Anti-Fc antibodies were injected over all 4 flow cells at a concentration of 25 μg/mL in 10 mM sodium acetate, pH 4.5, for 7 min. Ethanolamine (1 M, pH 8.5) was injected for 7 min to block any remaining activated groups.
Off-rate and kinetic binding experiments were performed at 25° C. using 1×HBS-EP+ buffer. Test and control antibodies were injected over the anti-Fab or anti-Fc surface at concentrations of 5-10 μg/mL for 12 seconds at a flow rate of 10 μL/min on flow cells 2, 3 and 4, followed by a buffer wash for 30 seconds at the same flow rate. […] After capturing ligand (antibody) on the anti-Fc or anti-Fab surface, the analyte (human CD3 epsilon, Acro Cat #CDE-H5223) was bound for 180 seconds, followed by a 600 second dissociation phase at a flow rate of 50 μL/min. Between each ligand capture and analyte binding cycle, regeneration was carried out using two injections of 10 mM Glycine pH 2.0 for 30 seconds at 30 μL/min, followed by a 30 second buffer wash step.
The data was fit with the Biacore T200 Evaluation software, using a 1-1 Langmuir binding model. KD (affinity, nM) was determined as a ratio of the kinetic rate constants calculated from the fits of the association and dissociation phases.

[2] = biological target: T2, human CD3 delta-epsilon-Fc heterodimer (Acro Biosystems, Cat #CDD-H52WO) (human, UniProt P04234 22-105); test: single-point ELISA; signal on huCD3DE-Fc over Fc
T2 construct: Bought; also called CD3DE-Fc; huCD3DE-Fc; not shown: Fc
T2 sequence (chain, as listed by the source mutant, chain 1 of 2): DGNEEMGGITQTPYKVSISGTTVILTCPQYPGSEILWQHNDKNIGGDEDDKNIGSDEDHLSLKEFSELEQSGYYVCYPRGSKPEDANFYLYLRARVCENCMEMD
T2 sequence (P04234 22-105, stated change not applied, chain 2 of 2): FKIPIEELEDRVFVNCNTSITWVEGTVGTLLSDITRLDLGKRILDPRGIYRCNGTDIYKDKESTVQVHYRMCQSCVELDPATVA
Method: (§1) Following small-scale cell-free protein synthesis (60 μL reactions), each reaction was diluted 1:50 and tested for binding to CD3 protein by ELISA. Briefly, human CD3 delta-epsilon-Fc heterodimer (CD3DE-Fc, Acro Biosystems, Cat #CDD-H52WO), cynomolgus CD3 delta-epsilon heterodimer (CD3DE, Acro Cat #CDD-C52W4) and human IgG1 Fc (Acro Biosystems, Cat #FCC-H5214) were coated to 384-well Maxisorp plates in 0.2M sodium bicarbonate-carbonate pH 9.4 and blocked with […] in PBST (phosphate buffer saline, […], diluted from Teknova Cat #P2192). Antibodies expressed in CF were diluted 1:50 in 0.20% BSA in PBST and were incubated on the […] plates, washed, and detected with HRP-conjugated anti-human Fab antibodies (Jackson ImmunoResearch, West Grove, PA) and Pierce Pico Supersignal ELISA substrate (ThermoFisher Scientific).

[3] = biological target: T3, cynomolgus CD3 delta-epsilon heterodimer (Acro Cat #CDD-C52W4) (cynomolgus monkey, UniProt Q95LI8 22-105); test: single-point ELISA; signal on cyCD3DE over Fc
T3 construct: Bought; also called cyCD3DE
T3 sequence (Q95LI8 22-105, stated change not applied, one chain of several): as the sequence (P04234 22-105, stated change not applied, chain 2 of 2) above, with I5V, N15K, I20V, S32T, D33N, I34N, T64A, S74N, V83L counted along it
Method: as §1

[4] = biological target: T4, human CD3 on T-cell lines (CD3-expressing Jurkat cells; HUT78 cells) (human, UniProt P07766 23-207); test: flow cytometry, Jurkat cells
T4 construct: On cells it stands in the CD3/TCR complex
T4 sequence (P07766 23-207 limits assumed): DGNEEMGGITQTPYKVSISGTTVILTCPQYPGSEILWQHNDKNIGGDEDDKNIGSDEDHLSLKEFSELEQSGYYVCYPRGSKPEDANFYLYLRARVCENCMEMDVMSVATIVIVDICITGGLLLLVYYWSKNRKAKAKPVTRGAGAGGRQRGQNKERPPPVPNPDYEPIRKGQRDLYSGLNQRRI

[5] = biological target: T4, human CD3 on T-cell lines …; test: flow cytometry; signal on CD3+ Jurkat over CD3- Jurkat RT3-T3.5 cells
Method: A high-throughput primary screen was performed to rapidly assess cell binding of antibodies produced in small-scale (60 μL) cell-free reactions. In this screen, four components are combined in equal volumes to a final volume of 100 μL/well in a U-bottom 96-well plate (Greiner Cat #650201) or flat bottom 384 well plate (Greiner Cat #781201). […] Plates are then incubated on ice for one hour. Cells are pelleted by spinning at 1500×g for 5 minutes and resuspended in assay buffer. High-throughput flow cytometry is then performed on resuspended cells on a FACS instrument (BD Biosciences FACS Canto II or BD Biosciences LSR II) and data is analyzed with FlowJo software. Antibody binding is assessed by the proportional level of secondary antibody signal (presumably due to binding to our antibody of interest) on Jurkat CD3-positive cells compared to the signal on Jurkat RT3.T3.5 CD3-negative cells.

[6] = biological target: CD3-GE; test: ELISA, coated antigen
[7] = biological target: T5, cynomolgus CD3 epsilon (cynomolgus monkey, UniProt Q95LI5 22-117, limits assumed); test: ELISA, coated antigen
T5 construct: Recombinant protein; also called cyno CD3E
T5 sequence: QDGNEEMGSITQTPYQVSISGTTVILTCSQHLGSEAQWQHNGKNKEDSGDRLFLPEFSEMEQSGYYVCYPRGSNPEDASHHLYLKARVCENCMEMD

[8] = biological target: T1, human CD3 epsilon (Acro Cat #CDE-H5223); test: ELISA, coated antigen

T1 sequence (P07766 23-126 limits assumed): as the sequence (chain, as listed by the source mutant, chain 1 of 2) above

B1: SRP2037:A03 (scFv, not shown: small tags and cut ends)
scFv: EVQLVESGGGLVKPGGSLRLSCAASGFTFSKYAMNWVRQAPGKGLEWVARIRSKYNNYATYYADSVKDRFTISRDDSKNTAYLQINSLKTEDTAVYYCVRHGNFGNSYTSYWAYWGQGTPVTVSSGGGGSGGDGSGGGGSQTVVTQEPSLTVSPGGTVTLTCGSSTGAVTSGYYPNWLQQKPGQAPRGLIGGTKFLAPGTPARFSGSLLGGKAALTLSGVQPEDEAEYYCALWYSNRWVFGGGTQLTVT
notes: tested as scFvFc
With B1 the Kd [1] was 1.23 nM, the koff [1] was 0.000235 s⁻¹ and the “huCD3DE-Fc/Fc, ELISA S/N” value [2] was 55.1. For the same binder, the “cyCD3DE/Fc, ELISA S/N” value [3] was 62.1, the Bmax [4] was 4540 and the Kd [4] was 0.16 nM.

B2: SRP2037:A04 (scFv, not shown: small tags and cut ends)
scFv: B1 scFv with S30N, N79S, I85M, V99A, T109I, Y174H, Y234C
notes: tested as scFvFc
For B2, the Kd [1] was 0.367 nM, the koff [1] was 3.27e-06 s⁻¹ and the “huCD3DE-Fc/Fc, ELISA S/N” value [2] was 14.7. The “cyCD3DE/Fc, ELISA S/N” value [3] was 19.3, the Bmax [4] was 4800 and the Kd [4] was 1.7 nM.

B3: SRP2037:A05 (scFv, not shown: small tags and cut ends)
scFv: B1 scFv with S30N, K78R, I85M, T90A, T109I
notes: tested as scFvFc
With B3 the Kd [1] was 0.712 nM, the koff [1] was 0.000157 s⁻¹ and the “huCD3DE-Fc/Fc, ELISA S/N” value [2] was 21.2. For the same binder, the “cyCD3DE/Fc, ELISA S/N” value [3] was 28.9, the Bmax [4] was 5900 and the Kd [4] was 0.12 nM.

B4: SMP1913-F03 (antibody, V domains shown)
VH: not shown
VL: QSAVTQPRSVSGSPGQSVTISCGSSTGAVTSGYYPNWYQQHPGKAPKGMIGGTKFLAPGVPDRFSGSLLGNTASLTISGLQAEDEADYYCALWYSNRWVFGGGTQLTVTG
notes: human IgG1, lambda; also called SP34-Hc + SP34-Lc2
For B4, the “FACS S/N (Jurkat/Jurkat RT3-T3.5 binding)” value [5] was 1.

B5: SMP1913-F08 (antibody, V domains shown)
VH: not shown
VL: B4 VL
notes: human IgG1, lambda; also called hSP34-Hc1 + SP34-Lc2
For B5, the “FACS S/N (Jurkat/Jurkat RT3-T3.5 binding)” value [5] was 0.9.

B6: SMP1913-F09 (antibody, V domains shown)
VH: not shown
VL: QTVVTQEPSLTVSPGGTVTLTCGSSTGAVTSGYYPNWFQQKPGQAPRGLIGGTKFLAPGTPARFSGSLLGGKAALTLSGVQPEDEAEYYCALWYSNRWVFGGGTQLTVTG
notes: human IgG1, lambda; also called hSP34-Hc1 + SP34-Lc3; hSP34-HC1+hSP34-LC3
With B6 the “FACS S/N (Jurkat/Jurkat RT3-T3.5 binding)” value [5] was 6.2, the EC50 [6] was 1110 nM and the “ELISA Bmax (RLU)” value [6] was 1.7e+06 RLU. The EC50 [7] was 35.6 nM, the “ELISA Bmax (RLU)” value [7] was 1.57e+06 RLU and the EC50 [8] was 28.9 nM. For the same binder, the “ELISA Bmax (RLU)” value [8] was 1.62e+06 RLU.

B7: SMP1913-H02 (antibody, V domains shown)
VH: not shown
VL: B6 VL
notes: human IgG1, lambda; also called hSP34-Hc4 + SP34-Lc3
With B7 the “FACS S/N (Jurkat/Jurkat RT3-T3.5 binding)” value [5] was 1.

B8: SMP1913-G05 (antibody, human IgG1, lambda, V domains shown)
VH: EVQLVESGGGLVQPGRSLRLSCTASGFTFNKYAMNWFRQAPGKGLEWVARIRSKYNNYATYYADSVKDRFTISRDDSKSIAYLQMNSLKTEDTAVYYCVRHGNFGNSYISYWAYWGQGTLVTVSS
VL: not shown
notes: human IgG1, lambda; also called hSP34-Hc3 + SP34-Lc
In the case of B8, the “FACS S/N (Jurkat/Jurkat RT3-T3.5 binding)” value [5] is reported as 0.8.

B9: SMP1913-G08 (antibody, human IgG1, lambda, V domains shown)
VH: B8 VH
VL: B6 VL
notes: human IgG1, lambda; also called hSP34-Hc3 + SP34-Lc3
B9 was tested, and the “FACS S/N (Jurkat/Jurkat RT3-T3.5 binding)” value [5] was 1.

B10: SMP1913-F04 (antibody, V domains shown)
VH: not shown
VL: B6 VL
notes: human IgG1, lambda; also called SP34-Hc + SP34-Lc3
In the case of B10, the “FACS S/N (Jurkat/Jurkat RT3-T3.5 binding)” value [5] is reported as 5.1.

B11: SMP1913-F02 (antibody, V domains shown)
VH: not shown
VL: EIVVTQSPGTLSLSPGERATLSCGSSTGAVTSGYYPNWYQQKPGQAPRGLIGGTKFLAPGIPDRFSGSLLGTDATLTISRLEPEDFAVYYCALWYSNRWVFGQGTKLEIKR
notes: human IgG1, kappa; also called SP34-Hc + SP34-Lc1
For B11, the “FACS S/N (Jurkat/Jurkat RT3-T3.5 binding)” value [5] was 0.9.

B12: SMP1913-F07 (antibody, V domains shown)
VH: not shown
VL: B11 VL
notes: human IgG1, kappa; also called hSP34-Hc1 + SP34-Lc1
For B12, the “FACS S/N (Jurkat/Jurkat RT3-T3.5 binding)” value [5] was 0.8.

B13: SMP1913-F10 (antibody, V domains shown)
VH: not shown
VL: QTVVTQEPSFSVSPGGTVTLTCGSSTGAVTSGYYPNWYQQTPGQAPRGLIGGTKFLAPGVPDRFSGSLLGNKAALTITGAQADDESDYYCALWYSNRWVFGGGTQLTVTG
notes: human IgG1, lambda; also called hSP34-Hc1 + SP34-Lc4
For B13, the “FACS S/N (Jurkat/Jurkat RT3-T3.5 binding)” value [5] was 1.

B14: SMP1913-G04 (antibody, human IgG1, lambda, V domains shown)
VH: B8 VH with V5L, R16G, T23A, F37V, S79N, I80T, K89R, T90A
VL: B13 VL
notes: human IgG1, lambda; also called hSP34-Hc2 + SP34-Lc4
In the case of B14, the “FACS S/N (Jurkat/Jurkat RT3-T3.5 binding)” value [5] is reported as 1.

B15: SMP1913-F05 (antibody, V domains shown)
VH: not shown
VL: B13 VL
notes: human IgG1, lambda; also called SP34-Hc + SP34-Lc4
In the case of B15, the “FACS S/N (Jurkat/Jurkat RT3-T3.5 binding)” value [5] is reported as 0.9.

B16: Mouse SP34 (antibody, V domains shown)
VH: EVQLVESGGGLVQPKGSLKLSCAASGFTFNTYAMNWVRQAPGKGLEWVARIRSKYNNYATYYADSVKDRFTISRDDSQSILYLQMNNLKTEDTAMYYCVRHGNFGNSYVSWFAYWGQGTLVTVSA
VL: QAVVTQESALTTSPGETVTLTCRSSTGAVTTSNYANWVQEKPDHLFTGLIGGTNKRAPGVPARFSGSLIGDKAALTITGAQTEDEAIYFCALWYSNLWVFGGGTKLTVL
notes: also called SP34 mouse monoclonal antibody; MSP34
For B16, the EC50 [6] was 574 nM, the “ELISA Bmax (RLU)” value [6] was 3610 RLU and the EC50 [7] was 352 nM. The “ELISA Bmax (RLU)” value [7] was 116000 RLU, the EC50 [8] was 251 nM and the “ELISA Bmax (RLU)” value [8] was 123000 RLU.
